# According to the domain aggregation screens of Martell et al. (2025):
# Assay: soluble fraction after stress (log2 fold change); higher = more stays soluble; pooled small domains, quantitative proteomics
# Settings: stress: 75 degC
# 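Further: 20 min heating vs room temperature control held 20 min.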
row,Sequence,soluble fraction (log2)
1,HMRRRTLRQGATGSDVHAVQRLLNVDGAGLRTDGIFGPATERAVIAYQRKHGLAVDGVVGRETWTALLG,-0.743
2,HMRRSDLVTQGDEILKRLQWNQQQAKDFLNQHLKASSRQQLTDEQLLNFNMLLEEQLVKSME,0.426
3,HMRRSLIGPTVRERRRALGITQSRLAAEVGISASYLNLIEGDKRNIGGALLQRIAGALGLALD,-3.08
4,HMRRTVIVTAAHAEIRERPDANAPLVFSAEQKVSLDYQETAPGGWVKVRHRDGQSGYVRTNQI,-0.716
5,HMRRVGTALNRSHKVSYGESIQSIAARYNVNPTMLREYNRLKPEATITPGQILRIPPATIAS,-0.481
6,HMRRVRRTRRLLQDGLLGLMQHKAVADISVKELAEAADVARATVYVHFKDPADVLHQLEQGLY,0.091
7,HMRSDHVFTSHLARRDKYISELESLSDSARDDHIQTIKEEDEYLLKYRRTRNLFGIPLNDEMKQFEPFNY,-0.228
8,HMRSEILNLLREKSPQPVSGQDLANHFGITRTAVWKHIQSLKKMGYGIEAYTKKGYVLVSVPN,-0.159
9,HMRSGEDESFSAGLLEYPHYTRPAEFEGHRIPDILTSGDHAKVDAWRQEMSEHITRERRPDLWEMYKKK,0.13
10,HMRSHLSANLQRLRHIAGLTQKDLALAANLPRATLASLEQGEANPRLDTLLAVASALQVGLDELIAAP,-1.32
11,HMRSIMAVSNYRHKKILEMVYQRKSVSADELAAEFGVSKITIRRDLDTLAMDKLLERTRGGAISISD,-3.14
12,HMRSRHYRFSTPFLDRLIAEIDWNSDNALSIFNQKLVHFDFLKYFSAIQPGSIVEIENLNFIWTGKRLEAH,-3.37
13,HMRSVLSDEIYLLIRKMIFNYEILPGAKVNIDALAKKLDVSQTPVREALSRLESDGLIVKEPLKGFRATD,-2.72
14,HMRSVPNVAGLGMDGAAFQLGKAGFAIGTITPADDPKAVVGSIQRTEPAAGTVADRDTVVNLFQV,0.228
15,HMRSVTLQTDREGDILYVDGKQIGVSPQRLELSYGVHTIRAERGEQHTEKELEVTETGGETVVTLGFG,0.375
16,HMRSYTPGSAFRLSSVPVYNAETGPSIGVRSGTYYIHSLPVSNGRIRMTNLISRVGKPGQVSFWVEISR,-3.11
17,HMRTAELEVWDDDELNDVVKLIQNNHNINTLKLRFQENVSFSGLSLIAAVLTKQSIILEIEY,0.235
18,HMRTDQYHYLAWKQVADELGIPFDEQVNERLRGVSRMASFDIILERYDGTMSDEEKIHWTDKKNEIYKSM,-0.603
19,HMRTGLSGMIGEIGIVKQAIDPEGKVAVHGELWKARADVALAAGQTVRVVAVDGLTMTVEATDSK,-0.661
20,HMRTIPDALIGRPYESVETAIVLEGLQAKRTEVFHPTIRPGTVIRLEPTSGSELLRDGVVEIFVSQGPETT,0.157
21,HMRTITIDDSIAGKRLDEALTLLGAESSRTKVKLLFSSPNGVLVNGEKEKPHYRVEAGDVIQFGELPKK,0.541
22,HMRTKEGLASQLEKIPGIGPVKRKALLKKFGSIDAIAAASKEELMLTDGITSSLADAIRDYF,-0.0754
23,HMRTLKDSTEYLIRSMLLRGEMKVGEIYSANALAKELNISNSPVREAMMSLVDRGLLENVRNRGFRVV,-1.83
24,HMRTLRENIMDYFKQQTIIQKSSVILLPMSKRQLADYFGVQRPSLFRELKKLKEEGIIEINNRTITIK,-1.8
25,HMRTSIWTAIAHSLRSDIGSGVYGPDDKLPTESALAARFGVNRHTVRHAIKALTDEGLVLPRRGAGVFVTS,-0.241
26,HMRTSPGADYEKTYYTIQSGDNLGAIAEKMGVSVADLKDWNDISGTKIYAGKKLVIYVKKGST,-0.351

row,Sequence,soluble fraction (log2)
1,HMRTTTGSEGMIGSIGKAKTDLAPDGKIFIHGELWDATSSSPVSAGQKIEVTQIEGLKLHVKPVL,0.7
2,HMRTVLSDETYLRIREMLLTHDIAPGERINIDALARELDVSQTPVREALARLESEDLVTKEPLRGYTATK,-0.0533
3,HMRTYEHALTEEEKELILIVSNLSEYKSLPPSQIVPKLADLGIYIASESSFYRVLRAHNQLHHRGR,-2.75
4,HMRTYYEILGVSKNASLHEIQKAYRELALKYHPKNNSDPTAEEKFTQINEAYTHLSDAARRRSYDDL,0.554
5,HMRVGADLTQRERELLALMAQGMSNQEIAKRLEIAVPTVKFHITNILDKLQVGNRTEAVIAALEHKLVP,-0.704
6,HMRVKLVKKSILASGGENIRVDKFLSNHILTMTRTQIKKLFLDGLVQVNKSFVKPGSILKGNEIITFSIPE,-1.68
7,HMRVNINVSENILDWVMKRVNPSVLSSKQGELLYAWKEGRKVPTYNQIEKMSKVTGIPLGYFFLEKPPVE,-1.45
8,HMRVPQWLVDKIAAAGIDTHRSGPALKALAAKAGTPEQLDQAIARAKALRRRTGSTQSLNVGLLGSILEGT,-0.345
9,HMRVQELARDLGVEADTLIALLRQMGIPVTGARSAINDAQQAKVLAKIERERRAGHSDPAKAIQAVLEEAS,0.00503
10,HMRVSNADALIGRRGKANSDIRRGDYGWVAIDGDVWKSKLADDITEDIPMGAIVEVLSRDSIILTVKP,-0.926
11,HMRWAAIMGREVAAHSTPESLVEGKLHIRTDTTAWATQLRLMSADIVRRLNEVLGEGTVLEVDVRG,-2.22
12,HMRWSDQKEIVTLSLDHVLVEKGRKTKEYSWREFRTFTAFEIKKSSKDQINLGFKSKGNTVIIGNF,-1.2
13,HMSAAELFEERQRQYLRGRKSTKNIADNHGTIILRAGETITDQAIDKAKVAGKLVELVMNNE,0.104
14,HMSADDSDDRKGIDAWLTQLLANGSVKATEVYSAADAAGYSKDQAKRAKRRLAIEAVREAMDGPWFWRLD,-0.853
15,HMSAEDQRRASQEAAYRFMQVMAGNEAGFEDAARALFAGDNHRFEVLIQSWPDDVRDHVSLLSVDAFA,-0.651
16,HMSAEVMLRRLIDENDPSSENARYILAVMLERKKILAPVDVKNEKKSKMLFYEHQKTGEAFIVRDP,-0.0597
17,HMSAEVSEIEIQRIISYYRNQNGVPDKYNEIFDRIAAQYTDEQLKVISNFLPSDVKQYLSFNNEKYKSLG,-0.904
18,HMSAGKKSFTNSEFRRFLDALGEGLIVKHKKLGEGVVVEIRGDKAVIQFGDEQRLYELKTLYEYDLLR,-0.628
19,HMSALAQDGDLVQLQGAGYKSHILRLKAGEVLQTHRGVIQHDAVIGQPWGARLQSHTGSPFYLFQPGLADL,-0.684
20,HMSALTELPVKTVNGKKYHYYVVKQHETVYALSKRFGITPEQLIKYNPSAEDGLQIDQELLFPATEI,-0.353
21,HMSANVSMEEALRRTSQAHSLAGKWMRRVLQMAQGRDLIEQMQREAQEAHLPELIGMSVQLEFIRRG,-0.107
22,HMSAPEGWMNRGDLRDNFRIQYPVTDRIIASYRESHPEWFGTYLSKTSKSLEYFHPDLVAKVREAAN,-0.0761
23,HMSAPQKWDGSLQDFIRFKQEAKTLMDNIPNKRLALNAILETISDGKMRKRLAKYDGPESALKSLELEFGN,-0.1
24,HMSAQDLIVRRDSARIEARVTEISPTEIRYKRASNPDGPTYVLPLGDVRSIRYANGEEEVFAPA,-0.223
25,HMSAQQTFLRDAMRRLNMTRDSFAERIGVRRRALDTWLLPEDSSEYRTMPSIVEKFVGEILGREA,-0.65
26,HMSARKVTVALHTRDHADRLRRLLKHEGVSADLVAARLSHKLTDHPIEVRVNEDDIPAVLRIIENIEIF,-1.61

row,Sequence,soluble fraction (log2)
1,HMSASLPAAVEDPDLPYRVGAKLRHARWGEGLLVGIQREGSDVIATVHFASVGRKRLSLQYAHLEE,-2.17
2,HMSATIMVLRASEDIPVGTEIKDNHLTTVEVGSYGLPEGAINDKDTVLGKVAQTNIIKGDYFFPQKLGG,0.339
3,HMSDAQIKASINDLWFKYNLETFAKLNLNVNQGRVLVTGIVQNPEHRLEAIRLVWTVDGVQQVINEIQVAE,-2.33
4,HMSDDIPVHYRLDVNDAARALKLLTDNGFSAETAESGLNVYMTRLQSAEAARLLVENNIAVYGLTAV,-0.297
5,HMSDDLIILGYSMLNNALKAFHIDPDSIKKKHWDKLAQDYHLKNKNQILTDIALGKRVNIMVAHQLTTIMD,-0.738
6,HMSDDSYLVALAEAYKNATSWDIRRQVLSIMTGVSSYKEISRYIPGLTQYRLSISNLHRLQYGRAAPVP,0.0264
7,HMSDEAGKVLQLLRENGGYLPYNDRSDPEDIYAFFSMSKKTFKMTAGNLYKQKKIIFTNTGIKLTE,-3.51
8,HMSDEVNTDKAFRAIDSTLNRNVKGIAPRDHTLLRNTMITYFKSNDYIDYDTMIQSTLENYKPTELEQDKM,0.0497
9,HMSDGHLIKVLEVLDGGEAFLGRTANGGTARFSLGQLADIRRGSVVFVSEDRWEVVPDSAWPEI,-1.1
10,HMSDGIPDLRNLNFLSPQEGDYLNESDRVFGVTINGDGQAYPLRIVNAHEMVNDTLGGEPISLM,0.124
11,HMSDHKNANFTKVVKVAQELLQDEDDKAGITPTLIEEKISAVLAMNRRWAEGLDRAAVADELIRRFSIW,-0.847
12,HMSDIATLVPGPTDAELAASALRGLDAALDADTPVRLSLGEPGGEVEVPRSVLAALARVLDSFAHGEGVTL,-0.0408
13,HMSDIISEIESQVMFKLATYEITNATEKMIEALINSEINDRRTLGFPIPNEQGRIFLVRSIQNKLAV,-2.77
14,HMSDIIVQGNRRLDTDLIITDSQIREIGTDEKSLSLAVKNLYKTGYFENVQIFKDNSVVFINVKENQ,-0.618
15,HMSDIQKGTQINLVNEPLYVSSKTSIVSTYKTGTYYTWGFEANNRIAITNKLENIGVKGQVTGWINKP,-1.73
16,HMSDKFNALWIILNKLDKKEKVTARSLMEDLEVSERSVYRYITTLQVAGFPVDYDRAVNSYVFSDGYTLK,-4.11
17,HMSDKLTLPVQINGVFRYTIEINPSMQKDEIIDLVKNEERTAKYKQDKEIKNVIVVPGKIVNIII,-0.339
18,HMSDLPLLEHARQNLSDDEFRILELTTIYGYRRVEVAKMLGEPISTINWKYNKLIKKVKTFYGEVYN,-0.998
19,HMSDLVATKEQVVEAYKYGLGLGLDNSTLKMLLFDIRGEDVADQDKISDGMTVSEIEIWKEGMRTIAEEYL,-0.5
20,HMSDMIGQNIRRLRTEKQMTQKALADKLFVTAQAVSRWENGEVEPSLSTVTEIARIFNVSADEILGI,-0.228
21,HMSDPDPAEQALLRQFMTRYAAYRRRGQHPAGAFRTASLEVFGQEPSGDLRDVIVDLESGLV,-0.234
22,HMSDPELNDNEKKIYDIIFNKKSMDLTELKNLSELSNKQWDKGIKSLSKQDFVKVIKTEEALIVELV,-0.509
23,HMSDPSAQADALFNEGKTAEAFNVLLRLIEDSPEDQREDYRVRLLDLFRIAGNTPEVKAARRRLSALLM,-0.237
24,HMSDRFVRIVMNDGTVKLGQMISEDADFIRLKTNNLGELNIPKYLVLDMMDLTRSEYVRLSISNAG,-0.282
25,HMSDSAFAEMRRELEALRNSNAEYERALSNFFPEAEDKALAAEAFYQNREYDELVAEREEANVIDGLKR,-0.198
